# Measured values reported in paper PMC5350102.
# Where two headings read alike, the source gives them in different places.
# Legend:
# nNOS [1] = molecular target: nNOS (UniProt P29475); details: cited from earlier work
# His-nNOS[1–155] (human) = His-nNOS[1–155] (human) (UniProt P29475); experiment: fluorescence polarisation; competition FP: 1 μM F-GDLV, 4 μM His-nNOS(1–155), increasing competitor; approximate Kc (dissociation constant of the competitor, affinity for the nNOS PDZ pocket) from the single-site competition formula
# nNOS [2] = molecular target: nNOS (UniProt P29475); experiment: solid-phase no-wash assay; details: cited from earlier work
# GST-nNOS[1–155] (human) = GST-nNOS[1–155] (human) (UniProt P29475); experiment: pull-down; solid-phase no-wash binding assay: 5 μl beads bound to 1 μg GST-fused nNOS protein (or GST for background) rotated with His-TAT-NOS1AP peptides for 1 h at 4°C; unbound removed by centrifugation in filter plates, no wash; bound peptide quantified by fluorescent immunoblot; GST background subtracted; 1-site quadratic fit
substance,measurement,setting,value
NOS1AP-9C,Kd,nNOS [1],> 600 µM
NOS1AP[400–503] F431A cleaved from GST (from UniProt O75052 400-503) (domain or fragment),Ki,His-nNOS[1–155] (human),> 10 µM
TAT-NOS1AP 400-506 (from UniProt O75052),Kd,nNOS [2],0.75 µM
"His-TAT-NOS1AP[400–503] F431A, denatured (from UniProt O75052 400-503) (domain or fragment)",Kd,GST-nNOS[1–155] (human),100 µM
